± gives the half width of the 95% confidence interval.
Experiments:
[1] = folding stability dG unfold from chymotrypsin proteolysis; higher = more stable
Summary of the method: (§1)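 How resistant each design was to proteolysis was captured as K50, inferred by Bayesian fitting of sequencing counts. Unfolding free energy was then derived relative to a sequence-predicted unfolded-state K50 and a shared folded-state K50, per protease or combined. Digestion used trypsin and chymotrypsin at 11 threefold-diluted concentrations plus a no-protease condition, on mini-proteins under 80 residues without cysteine in a PA-tagged cDNA display construct. Designs were kept only when AlphaFold2 dimer inter-PAE was above 15.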

[2] = folding stability dG unfold from trypsin proteolysis; higher = more stable
Summary of the method: as §1

[3] = folding stability dG unfold (combined trypsin and chymotrypsin); higher = more stable
Summary of the method: as §1

Row | Sequence | folding stability dG unfold [1] [kcal/mol] | folding stability dG unfold [2] [kcal/mol] | folding stability dG unfold [3] [kcal/mol]
1 | SAGGSAPRVVRVETVTLTPPADSTVTARLLRLETPEGPRYVLAVRDPSTPVVVARPVPEGATLLEESAGGSA [r15_75_TrMRF] | -0.124 ± 0.1 | -0.581 ± 0.23 | -0.237 ± 0.11
2 | SAGGSAPVVEYEFVDPGNGRKVKIEVYPHPDGNYQMSIEVYDPGKPVEKIPFWMPPGEMPIEDLLKSAGGSA [r15_147_TrROS] | 0.565 ± 0.24 | 0.528 ± 0.059 | 0.565 ± 0.13
3 | SAGGSAPWRPITITIPGSWEEIKELAKKFVNDGNIRDVEVEPVPDPGYYKVTVWVRDPNGNWYLVFSAGGSA [r15_177_TrROS] | 3.204 ± 0.031 | 2.23 ± 0.16 | 2.9 ± 0.2
4 | SAGGSAPWVTLPIIIMFDSPEQAVEEVKPIFQELFGIKDVNVEEEPMPNGMVFVPIEITIPAENMKSAGGSA [r15_173_TrROS] | 1.38 ± 0.07 | 0.547 ± 0.061 | 1.09 ± 0.092
5 | SAGGSARRPFNVEAWYPPGRSADNVADELASHFFGIKIDDVEVEPNPDNGYYKIEATIRIPPDWLKSAGGSA [r15_930_TrROS] | 0.528 ± 0.29 | 0.0136 ± 0.36 | 0.33 ± 0.18
6 | SAGGSARVIRNPDYGMWIRLQPTDGGYTVQIEMYRPDPEDGKPKRRPMTHTIPPDDLPPEIRDLLKSAGGSA [r15_703_TrROS] | 0.515 ± 0.12 | 0.442 ± 0.1 | 0.573 ± 0.07
7 | SAGGSARYYFIVIEIWQPGKPVKFIIVVPKEDPKKFESEINEMFPGYNIDIKVIPFPSPEEAEDLFSAGGSA [r15_889_TrROS] | 2.97 ± 0.088 | 2.26 ± 0.1 | 2.74 ± 0.17
8 | SAGGSASDVVPIDKKITITLPGGEKYEVTEMTVLPDGTVKMKIIKKSPNGNPTEEEITLSPEELVDLSAGGS [r16_498_JUSTAS] | 2.594 ± 0.021 | 2.26 ± 0.083 | 2.47 ± 0.058
9 | SAGGSASGYYTTTTVEIEPEGDTLTTVTTTTLGVPVTFDPVNNTLTLNLPPDQSLVTTTTVTEVAASAGGSA [r15_1040_JUSTAS] | 0.857 ± 0.033 | 1.02 ± 0.04 | 0.976 ± 0.055
10 | SAGGSASLESEDVEEVSTSTSVVPLPDGGTATVTTTTYRHKEPGTLVTRTTTTFPGGATTTTVTLLSAGGSA [r15_188_JUSTAS] | 2.04 ± 0.022 | 1.69 ± 0.039 | 1.91 ± 0.025
11 | SAGGSASLFIPVPPTDTSPVTVEITIGNSKYRATLTVDPNNPNLMTVTLTDPNGGATTTETVPLLDSAGGSA [r15_328_JUSTAS] | 1.78 ± 0.031 | 1.8 ± 0.034 | 1.79 ± 0.069
12 | SAGGSASMKIRVYTISLYRPDGESVRDVPIVVPENEPDVDPEALAKAIADELGLVKVEISEEIVPLSAGGSA [r15_333_JUSTAS] | 1.4 ± 0.31 | 0.589 ± 0.097 | 1.14 ± 0.18
13 | SAGGSASMPLTLTFTTPTRTFTVTIPPSKVSSVTVEEKGPTITVTVEAPDSTITINITPSSVTISASAGGSA [r15_598_JUSTAS] | 4.19 ± 0.13 | 2.98 ± 0.13 | 3.8 ± 0.12
14 | SAGGSASMTIVPVKSEEELEAYIKTKNPKVFLLPLPDGTELVVKVNVDDPSKIEKVSLSKPEEILLSAGGSA [r15_11_JUSTAS] | 0.664 ± 0.16 | 0.228 ± 0.12 | 0.622 ± 0.25
15 | SAGGSASMTTKRPVSPELRAKVEAAAAAGDPAITVTLPVTLPDGRTVTLTVTKDPTADTFTATVVSSAGGSA [r15_700_JUSTAS] | 0.367 ± 0.3 | 0.0823 ± 0.33 | 0.221 ± 0.22
16 | SAGGSASNIKTEEKEYPDGKVVVKYSSDPNITYVYYYPPGGLELVETLDSNGNVISKKLVPKGKLISAGGSA [r15_419_JUSTAS] | 0.959 ± 0.097 | 0.607 ± 0.049 | 0.832 ± 0.06
17 | SAGGSASPAVSSEEEVEALVEELRKKGYEVLSVERTEIPGEDVTDYTIPIRDPSNGKLSTLTLTAGSAGGSA [r15_123_JUSTAS] | 0.538 ± 0.15 | 0.508 ± 0.037 | 0.585 ± 0.12
18 | SAGGSASSMPVTLTLLLTRPDGTPLTLPFEAETLEEAIERGTALAQELIAELGDPNMKITGLEVVPSAGGSA [r15_698_JUSTAS] | 1.44 ± 0.092 | 0.904 ± 0.067 | 1.22 ± 0.1
19 | SAGGSASSSLEVEVTAESPDPETGELRVTAVITTTYFDPSTGSTSTTTTTLTLTPEELAALVAALSSAGGSA [r2_357_JUSTAS] | 4.35 ± 0.049 | 3.92 ± 0.071 | 4.332 ± 0.043
20 | SAGGSASTVTRTRTIPGSGLTVEITETPLPDGTYSYTVTFYAPDSALKTTPKTAAPDELPEEELLSSAGGSA [r15_147_JUSTAS] | 1.48 ± 0.042 | 0.35 ± 0.049 | 1.1 ± 0.06
21 | SAGGSASVEIIFDPNKPTVTIYVPGPVDPNEPITLTLPGGPSLTITEIEVEKIGKEYVVKAKVTKLSAGGSA [r15_838_JUSTAS] | 2.12 ± 0.03 | 1.14 ± 0.04 | 1.8 ± 0.051
22 | SAGGSASVEVSVEEKDGTLTVTVTVEVDGKLVTVTVTLTLPPPPPLSAEELEKAREAEKEGKTVEVSAGGSA [r15_631_TrROS_Hall] | 2.77 ± 0.16 | 1.24 ± 0.12 | 2.49 ± 0.11
23 | SAGGSASVKVEETVEFLPGGVVKTTTRTFFPDGTVTTTDTVTALPPVPVYDISSPENLSPALERLASAGGSA [r15_1018_JUSTAS] | 1.16 ± 0.026 | 0.543 ± 0.028 | 0.909 ± 0.052
24 | SAGGSASVTRMIQIPPGDPNMSIEEAIEKIKIYLPNGKPVTIEIDRIWPDPNRYFFMITIKDGKPVSAGGSA [r15_331_TrROS] | 2.28 ± 0.13 | 1.21 ± 0.088 | 1.86 ± 0.15
25 | SAGGSATIEEIANMPAEEIAQEHGMEVKDVDIERVPNGTITVEVEYEPPDGKKHKHTFQIKIDEGQSAGGSA [r15_805_TrROS] | 0.251 ± 0.11 | 0.089 ± 0.1 | 0.284 ± 0.2
26 | SAGGSATLTLPEDVVKEVFTAKVGDKEYRPVVFRSPDDEWVLVLVLRRDPNGNTSAVAALLPKDAVSAGGSA [r15_986_TrMRF] | 1.8 ± 0.16 | 1.49 ± 0.047 | 1.64 ± 0.13

Reference: the supplement of paper PMC12764529
